# Test results as given in PMC7265457, “A disulfide constrains the ToxR periplasmic domain structure, altering its interactions with ToxS and bile-salts” (Scientific Reports, 2020).
# T1: V. cholerae ToxS periplasmic domain tagged with an N-terminal chitin binding domain (V. cholerae, UniProt P24003 26-173)
# T1 construct: also called CBD-ToxSp
# T1 sequence: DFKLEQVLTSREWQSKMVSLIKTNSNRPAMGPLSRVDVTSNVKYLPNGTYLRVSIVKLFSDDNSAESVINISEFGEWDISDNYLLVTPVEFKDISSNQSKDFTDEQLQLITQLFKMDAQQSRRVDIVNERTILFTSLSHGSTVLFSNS
# B1: V. cholerae non-disulfide bonded ToxR periplasmic domain (domain or fragment)
# chain: TNPSQTSFKPLTVVDGVAVNMPNNHPDLSNWLPSIELCVKKYNEKHTGGLKPIEVIATGGQNNQLTLNYIHSPEVSGENITLRIVANPNDAIKVCE
# notes: also called Vc-ToxRp
# Target: T1, V. cholerae ToxS periplasmic domain …
# Assay: pull-down
# Conditions: both partners purified
binder,measurement,value
B1,amount pulled down (buffer) relative to Vc-dbToxRp with CDC,0.22 relative level
